Test results reported in ChEMBL document CHEMBL1151754, “Structural and mechanistic studies of mofegiline inhibition of recombinant human monoamine oxidase B” (J Med Chem, 2008).

Substrate: NCCCCc1ccccc1
Assay: Activity of human MAOB

B1: Amine oxidase [flavin-containing] B (Homo sapiens) (protein)
chain: MSNKCDVVVVGGGISGMAAAKLLHDSGLNVVVLEARDRVGGRTYTLRNQKVKYVDLGGSYVGPTQNRILRLAKELGLETYKVNEVERLIHHVKGKSYPFRGPFPPVWNPITYLDHNNFWRTMDDMGREIPSDAPWKAPLAEEWDNMTMKELLDKLCWTESAKQLATLFVNLCVTAETHEVSALWFLWYVKQCGGTTRIISTTNGGQERKFVGGSGQVSERIMDLLGDRVKLERPVIYIDQTRENVLVETLNHEMYEAKYVISAIPPTLGMKIHFNPPLPMMRNQMITRVPLGSVIKCIVYYKEPFWRKKDYCGTMIIDGEEAPVAYTLDDTKPEGNYAAIMGFILAHKARKLARLTKEERLKKLCELYAKVLGSLEALEPVHYEEKNWCEEQYSGGCYTTYFPPGILTQYGRVLRQPVDRIYFAGTETATHWSGYMEGAVEAGERAAREILHAMGKIPEDEIWQSEPESVDVPAQPITTTFLERHLPSVPGLLRLIGLTTIFSATALGFLAHKRGLLVRV
kcat: 1.82 s⁻¹
